From article PMC9273970, “Mambalgin-2 Inhibits Lung Adenocarcinoma Growth and Migration by Selective Interaction With ASIC1/α-ENaC/γ-ENaC Heterotrimer” (Frontiers in Oncology, 2022)

Key:
[1] = biological target: ASIC1a subunit (acid-sensing ion channel 1a) (human (endogenous in A549))
[2] = biological target: human heteromeric ASIC1a/α-ENAC/γ-ENAC channel (human, UniProt P78348 1-528; P37088 1-669; P51170 1-649); assay: cell-based or functional assay
Chain of human heteromeric ASIC1a/α-ENAC/γ-ENAC channel (P78348 whole entry, chain 1 of 3): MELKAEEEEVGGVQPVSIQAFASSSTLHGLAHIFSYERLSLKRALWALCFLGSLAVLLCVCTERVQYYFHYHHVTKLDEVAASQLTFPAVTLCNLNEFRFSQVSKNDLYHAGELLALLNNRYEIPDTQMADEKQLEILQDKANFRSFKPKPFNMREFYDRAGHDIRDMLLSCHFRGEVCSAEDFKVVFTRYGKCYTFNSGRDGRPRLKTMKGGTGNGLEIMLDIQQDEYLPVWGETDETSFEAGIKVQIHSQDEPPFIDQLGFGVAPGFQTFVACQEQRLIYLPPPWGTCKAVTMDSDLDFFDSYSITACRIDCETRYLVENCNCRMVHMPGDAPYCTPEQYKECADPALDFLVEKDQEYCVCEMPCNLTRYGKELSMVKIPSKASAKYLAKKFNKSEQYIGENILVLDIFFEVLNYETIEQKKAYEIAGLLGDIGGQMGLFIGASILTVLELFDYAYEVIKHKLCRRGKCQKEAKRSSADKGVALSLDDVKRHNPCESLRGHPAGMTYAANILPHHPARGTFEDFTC
Chain of human heteromeric ASIC1a/α-ENAC/γ-ENAC channel (P37088 whole entry, chain 2 of 3): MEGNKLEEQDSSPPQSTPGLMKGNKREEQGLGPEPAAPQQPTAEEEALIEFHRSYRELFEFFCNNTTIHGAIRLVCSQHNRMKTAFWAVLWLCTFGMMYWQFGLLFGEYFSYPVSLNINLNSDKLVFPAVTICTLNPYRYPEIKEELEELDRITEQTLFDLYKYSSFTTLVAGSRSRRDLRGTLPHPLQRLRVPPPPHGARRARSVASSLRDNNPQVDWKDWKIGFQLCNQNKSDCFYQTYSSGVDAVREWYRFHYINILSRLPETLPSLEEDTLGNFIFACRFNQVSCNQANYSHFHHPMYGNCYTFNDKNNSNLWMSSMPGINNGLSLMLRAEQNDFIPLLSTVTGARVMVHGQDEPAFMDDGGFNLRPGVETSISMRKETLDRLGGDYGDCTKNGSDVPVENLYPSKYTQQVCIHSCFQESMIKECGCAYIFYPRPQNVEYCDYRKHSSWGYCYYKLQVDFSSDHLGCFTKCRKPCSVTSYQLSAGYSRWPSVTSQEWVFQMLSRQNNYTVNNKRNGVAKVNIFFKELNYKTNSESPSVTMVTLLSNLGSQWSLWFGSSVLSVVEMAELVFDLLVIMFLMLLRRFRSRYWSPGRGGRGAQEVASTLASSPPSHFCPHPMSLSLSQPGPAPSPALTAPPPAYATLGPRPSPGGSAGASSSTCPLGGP
Chain of human heteromeric ASIC1a/α-ENAC/γ-ENAC channel (P51170 whole entry, chain 3 of 3): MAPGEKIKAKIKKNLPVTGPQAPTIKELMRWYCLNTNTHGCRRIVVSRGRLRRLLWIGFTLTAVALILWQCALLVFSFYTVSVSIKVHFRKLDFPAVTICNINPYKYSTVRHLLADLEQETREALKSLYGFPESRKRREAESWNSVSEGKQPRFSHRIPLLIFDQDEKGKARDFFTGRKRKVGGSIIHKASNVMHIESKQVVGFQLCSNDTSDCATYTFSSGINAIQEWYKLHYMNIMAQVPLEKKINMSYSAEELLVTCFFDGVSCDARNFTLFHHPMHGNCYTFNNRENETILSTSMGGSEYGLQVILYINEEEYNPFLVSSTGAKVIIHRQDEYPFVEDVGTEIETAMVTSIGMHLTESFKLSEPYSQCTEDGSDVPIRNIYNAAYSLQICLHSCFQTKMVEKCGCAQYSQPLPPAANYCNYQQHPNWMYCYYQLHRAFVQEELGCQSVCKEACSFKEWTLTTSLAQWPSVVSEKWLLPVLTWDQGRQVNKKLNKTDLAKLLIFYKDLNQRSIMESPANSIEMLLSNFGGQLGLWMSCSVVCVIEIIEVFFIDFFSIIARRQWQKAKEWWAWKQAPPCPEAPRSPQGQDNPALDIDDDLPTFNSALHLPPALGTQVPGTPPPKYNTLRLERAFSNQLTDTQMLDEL

Chain of ASIC1a subunit (acid-sensing ion channel 1a) (human (endogenous in A549)) (P78348 whole entry): as the sequence (P78348 whole entry, chain 1 of 3) above

B1: recombinant mambalgin-2 from Dendroaspis polylepis (natural protein)
chain: LKCFQHGKVVTCHRDMKFCYHNTGMPFRNLKLILQGCSSSCSETENNKCCSTDRCNK
B1 was tested, and the inhibition of currents evoked by a pH drop from 7.4 to 5.0 in X. laevis oocytes expressing homomeric hASIC1a (two-electrode voltage clamp, mambalgin-2 0–10 μM, 15 s pre-incubation), IC50 [1] was 0.59 μM and the “inhibition of currents evoked by a pH drop from 7.4 to 5.0 in X. laevis oocytes expressing hASIC1a/α-ENAC/γ-ENAC (two-electrode voltage clamp, mambalgin-2 0–10 μM, 15 s pre-incubation), IC50” value [2] was 79 nM.
